In publication PMC466946 (Science Advances, 2024):

Target: SARS-CoV-2 S ectodomain trimer (SΔTM), wild type (SARS-CoV-2, UniProt P0DTC2)
Experiment: SPR

B1: neutralizing monoclonal antibody 4A8 (NTD-directed), human IgG1 kappa (antibody, V domains shown)
VH: EVQLVESGAEVKKPGASVKVSCKVSGYTLTELSMHWVRQAPGKGLEWMGGFDPEDGETMYAQKFQGRVTMTEDTSTDTAYMELSSLRSEDTAVYYCATSTAVAGTPDLFDYYYGMDVWGQGTTVTVSS
VL: EIVMTQSPLSSPVTLGQPASISCRSSQSLVHSDGNTYLSWLQQRPGQPPRLLIYKISNRFSGVPDRFSGSGAGTDFTLKISRVEAEDVGVYYCTQATQFPYTFGQGTKVDIK
- Kd: 0.42 ± 0.07 nM
